Ends that are not written are not given here.
B1: α1 peptide (TFALRGDNP), RGD peptide derived from laminin α1 subunit (peptide)
peptide: TFALRGDNP
modifications: also: N-terminus conjugated to oxidized alginate (EDC-NHS) or methacrylated and co-polymerized with PEGDA
B2: RGDS peptide (peptide)
peptide: RGDS
modifications: also: N-terminus conjugated to oxidized alginate (EDC-NHS) or methacrylated and co-polymerized with PEGDA
B3: RGDSP peptide (peptide)
peptide: RGDSP
modifications: also: N-terminus conjugated to oxidized alginate (EDC-NHS) or methacrylated and co-polymerized with PEGDA

Target: αvβ3 integrin on human umbilical vein endothelial cells (HUVECs) (human, UniProt P06756 31-1048; P05106 27-788)
Experiment: cell-based or functional assay

Chain of αvβ3 integrin on human umbilical vein endothelial cells (HUVECs) (P06756 31-1048, chain 1 of 2): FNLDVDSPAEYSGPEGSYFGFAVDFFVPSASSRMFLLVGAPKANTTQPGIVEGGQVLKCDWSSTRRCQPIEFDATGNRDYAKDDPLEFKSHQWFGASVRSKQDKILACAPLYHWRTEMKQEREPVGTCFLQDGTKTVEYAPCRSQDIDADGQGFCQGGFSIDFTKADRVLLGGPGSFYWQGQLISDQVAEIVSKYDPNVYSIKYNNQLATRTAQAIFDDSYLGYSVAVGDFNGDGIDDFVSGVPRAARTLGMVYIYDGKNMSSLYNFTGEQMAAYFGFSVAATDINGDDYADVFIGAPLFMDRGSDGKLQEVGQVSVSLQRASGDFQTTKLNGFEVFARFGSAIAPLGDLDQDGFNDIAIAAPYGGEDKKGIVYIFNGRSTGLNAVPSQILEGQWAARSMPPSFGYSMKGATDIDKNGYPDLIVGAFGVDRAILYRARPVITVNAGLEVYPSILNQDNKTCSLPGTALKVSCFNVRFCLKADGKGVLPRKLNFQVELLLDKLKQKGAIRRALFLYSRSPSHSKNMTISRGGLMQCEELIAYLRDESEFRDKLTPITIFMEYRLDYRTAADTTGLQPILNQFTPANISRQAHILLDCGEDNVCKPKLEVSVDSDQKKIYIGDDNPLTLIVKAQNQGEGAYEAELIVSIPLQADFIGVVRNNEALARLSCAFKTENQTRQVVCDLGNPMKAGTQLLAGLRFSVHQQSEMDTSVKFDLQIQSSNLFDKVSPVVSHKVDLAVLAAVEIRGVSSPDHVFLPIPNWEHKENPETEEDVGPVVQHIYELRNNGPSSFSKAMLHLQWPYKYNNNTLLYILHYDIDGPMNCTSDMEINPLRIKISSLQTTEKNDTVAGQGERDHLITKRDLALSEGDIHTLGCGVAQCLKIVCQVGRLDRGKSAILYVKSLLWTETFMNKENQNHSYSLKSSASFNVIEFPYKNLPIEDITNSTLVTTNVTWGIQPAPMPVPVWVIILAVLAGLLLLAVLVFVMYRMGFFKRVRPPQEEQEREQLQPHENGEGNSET
Chain of αvβ3 integrin on human umbilical vein endothelial cells (HUVECs) (P05106 27-788, chain 2 of 2): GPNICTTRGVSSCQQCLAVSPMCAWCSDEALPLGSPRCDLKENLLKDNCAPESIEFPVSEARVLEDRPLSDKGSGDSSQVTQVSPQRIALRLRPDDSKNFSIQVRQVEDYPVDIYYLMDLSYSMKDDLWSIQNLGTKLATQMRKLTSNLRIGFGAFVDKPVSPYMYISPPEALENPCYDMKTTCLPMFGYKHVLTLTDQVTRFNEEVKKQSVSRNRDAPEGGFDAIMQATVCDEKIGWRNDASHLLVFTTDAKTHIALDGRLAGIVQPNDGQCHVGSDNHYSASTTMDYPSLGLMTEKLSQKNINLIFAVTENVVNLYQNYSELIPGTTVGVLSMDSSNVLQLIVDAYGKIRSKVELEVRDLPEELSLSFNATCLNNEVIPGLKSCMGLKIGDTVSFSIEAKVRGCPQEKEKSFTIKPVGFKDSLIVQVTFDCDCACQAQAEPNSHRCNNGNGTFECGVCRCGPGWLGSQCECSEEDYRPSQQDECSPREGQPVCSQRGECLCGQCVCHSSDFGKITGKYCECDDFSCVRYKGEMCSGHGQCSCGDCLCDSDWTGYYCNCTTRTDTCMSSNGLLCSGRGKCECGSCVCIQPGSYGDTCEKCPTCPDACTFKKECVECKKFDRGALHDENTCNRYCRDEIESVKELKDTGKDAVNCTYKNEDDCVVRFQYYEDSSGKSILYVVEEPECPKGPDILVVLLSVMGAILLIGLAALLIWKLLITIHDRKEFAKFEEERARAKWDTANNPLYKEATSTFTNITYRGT

Row | decrease in HUVEC adhesion on peptide functionalized alginate when αvβ3 integrin is blocked | Binder
1 | ~60% | B1
2 | ~35% | B2
3 | ~35% | B3
